For the test, the target named is T1, recombinant purified GDF-8 (UniProt O14793 267-375, limits assumed).
T1 sequence (looked up): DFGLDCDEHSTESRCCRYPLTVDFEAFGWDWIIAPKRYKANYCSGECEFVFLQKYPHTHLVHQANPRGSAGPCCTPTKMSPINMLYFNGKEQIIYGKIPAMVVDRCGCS
As to the kind of experiment: cell-based or functional assay.

Consider one molecule from patent US20030180306A1 (Pfizer, published 2003).

B1: mouse GASP1 cloned with a C-terminal V5-His tag (GASP1-V5-His) (other, not shown: small tags and cut ends)
chain: LPPIRYSHAGICPNDMNPNLWVDAQSTCKRECETDQECETYEKCCPNVCGTKSCVAARYMDVKGKKGPVGMPKEATCDHFMCLQQGSECDIWDGQPVCKCKDRCEKEPSFTCASDGLTYYNRCFMDAEACSKGITLSVVTCRYHFTWPNTSPPPPETTVHPTTASPETLGLDMAAPALLNHPVHQSVTVGETVSFLCDVVGRPRPELTWEKQLEDRENVVMRPNHVRGNVVVTNIAQLVIYNVQPQDAGIYTCTARNVAGVLRADFPLSVVRGGQARATSESSLNGTAFPATECLKPPDSEDCGEEQTRWHFDAQANNCLTFTFGHCHHNLNHFETYEACMLACMSGPLATCSLPALQGPCKAYVPRWAYNSQTGLCQSFVYGGCEGNGNNFESREACEESCPFPRGNQHCRACKPRQKLVTSFCRSDFVILGRVSELTEEQDSGRALVTVDEVLKDEKMGLKFLGREPLEVTLLHVDWTCPCPNVTVGETPLIIMGEVDGGMAMLRPDSFVGASSTRRVRKLREVMYKKTCDVLKDFLGLQ
On to B1, for which the “IC50 for inhibition of GDF-8 (20 ng/ml) in the (CAGA)12 luciferase reporter gene assay, RD cells, purified GASP1-V5-His” value is approximately 3 nM.
